Assay results published in patent US20120329997A1 (Hoffmann-La Roche, published 2012).
Residue numbers refer to the chain shown, from its start. Where two headings read alike, the source gives them in different places.

Experiments:
[1] = target: T1, full-length wildtype CSF-1R (wt CSF-1R) (human, UniProt P07333 20-972); test: cell-based or functional assay
[2] = target: huCSF-1R-huFc chimera (soluble extracellular domain) (human) (UniProt P07333); test: competition ELISA, inhibition of CSF-1 binding to immobilized huCSF-1R-huFc
[3] = target: CSF-1R ECD (R&D-Systems 329-MR or in-house subcloned pCMV-presS-HisAvitag-hCSF-1R-ECD) (human) (UniProt P07333); test: SPR cross-competition, 25 C; second antibody on CSF-1R held by captured Antibody 1; competitor SC-02, clone 2-4A5 (Antibody 1)
[4] = target: CSF-1R ECD (R&D-Systems 329-MR or in-house subcloned pCMV-presS-HisAvitag-hCSF-1R-ECD) (human) (UniProt P07333); test: SPR (BIACORE A100), 35 C, antibody captured, CSF-1R ECD in solution
[5] = target: CSF-1R ECD (R&D-Systems 329-MR or in-house subcloned pCMV-presS-HisAvitag-hCSF-1R-ECD) (human) (UniProt P07333); test: SPR cross-competition, 25 C; second antibody on CSF-1R held by captured Antibody 1; competitor <CSF-1R>10A4.1G11 (Antibody 1)
[6] = target: mutant CSF-1R L301S Y969F (human, UniProt P07333 20-972); test: cell-based or functional assay
[7] = target: CSF-1R ECD (R&D-Systems 329-MR or in-house subcloned pCMV-presS-HisAvitag-hCSF-1R-ECD) (human) (UniProt P07333); test: SPR cross-competition, 25 C; second antibody on CSF-1R held by captured Antibody 1; competitor <CSF-1R>7H5.2G10 (Antibody 1)
[8] = target: T1, full-length wildtype CSF-1R (wt CSF-1R); test: cell-based or functional assay; remark: listed apart in the source
[9] = target: T2, CSF-1R ECD (R&D-Systems 329-MR or in-house subcloned pCMV-presS-HisAvitag-hCSF-1R-ECD) (human, UniProt P07333 20-517); test: SPR (BIACORE A100), 35 C, antibody captured, CSF-1R ECD in solution
T2 construct: also called CSF-1R (R&D-Systems Cat. No. 329-MR)
Protocol: For affinity measurements 36 μg/ml anti mouse Fcγ antibodies (from goat, Jackson Immuno Reasearch JIR115-005-071) have been coupled to the chip surface for capturing the antibodies against CSF-1R. CSF-1R ECD (R&D-Systems 329-MR or in-house subcloned pCMV-presS-H isAvitag-hCSF-1R-ECD were added in various concentrations in solution. Association was measured by an CSF-1R-injection of 1.5 minutes at 35° C.; dissociation was measured by washing the chip surface with buffer for 10 minutes at 35° C. Anti CSF-IR SC-02, clone 2-4A5 (Santa Cruz Biotechnology, US; see also Sherr, C. J., et al., Cell 41 (1985) 665-676), which inhibits the ligand-receptor interaction, was used as reference control.

[10] = target: T3, huCSF-1R-huFc chimera (soluble extracellular domain) (human, UniProt P07333 20-517); test: competition ELISA, inhibition of CSF-1 binding to immobilized huCSF-1R-huFc
T3 construct: also called huCSF-1R ECDhuFc chimera; not shown: human Fc
Protocol: At the beginning, plates were coated with […] goat F(ab′)₂ biotinylated anti Fcγ (Jackson ImmunoResearch., Cat. No. 109-006-170) for 1 hour (h).
Thereafter the wells were blocked with PBS supplemented with 0.2% Tween®-20 and 2% BSA (Roche Diagnostics GmbH, DE) for 0.5 h. 75 ng/ml of huCSF-1R-huFc chimera (soluble extracellular domain) was immobilized to plate for 1 h. Then dilutions of purified antibodies in PBS/0.05% Tween20/0.5% BSA were incubated for 1 h. After adding a mixture of 3 ng/ml CSF-1 (Biomol, DE, Cat. No. 60530), 50 ng/ml biotinylated anti CSF-1 clone BAF216 (R&D Systems, UK) and 1:5000 diluted streptavidin HRP (Roche Diagnostics GmbH, DE, Cat. No. 11089153001) for 1 h the plates were washed 6 times with PBST. Anti CSF-IR SC-02, clone 2-4A5 (Santa Cruz Biotechnology, US), which inhibits the ligand-receptor interaction, was used as positive control. Plates were developed with freshly prepared BM Blue® POD substrate solution (BM Blue®: 3,3″-5,5″-Tetramethylbenzidine, Roche Diagnostics GmbH, DE, Cat. No. 11484281001) for 30 minutes at RT. Absorbance was measured at 370 nm. […]

[11] = target: T1, full-length wildtype CSF-1R (wt CSF-1R); test: cell-based or functional assay; remark: listed apart in the source
[12] = target: T1, full-length wildtype CSF-1R (wt CSF-1R); test: cell-based or functional assay; remark: listed apart in the source

T1 sequence (P07333 20-972 limits assumed): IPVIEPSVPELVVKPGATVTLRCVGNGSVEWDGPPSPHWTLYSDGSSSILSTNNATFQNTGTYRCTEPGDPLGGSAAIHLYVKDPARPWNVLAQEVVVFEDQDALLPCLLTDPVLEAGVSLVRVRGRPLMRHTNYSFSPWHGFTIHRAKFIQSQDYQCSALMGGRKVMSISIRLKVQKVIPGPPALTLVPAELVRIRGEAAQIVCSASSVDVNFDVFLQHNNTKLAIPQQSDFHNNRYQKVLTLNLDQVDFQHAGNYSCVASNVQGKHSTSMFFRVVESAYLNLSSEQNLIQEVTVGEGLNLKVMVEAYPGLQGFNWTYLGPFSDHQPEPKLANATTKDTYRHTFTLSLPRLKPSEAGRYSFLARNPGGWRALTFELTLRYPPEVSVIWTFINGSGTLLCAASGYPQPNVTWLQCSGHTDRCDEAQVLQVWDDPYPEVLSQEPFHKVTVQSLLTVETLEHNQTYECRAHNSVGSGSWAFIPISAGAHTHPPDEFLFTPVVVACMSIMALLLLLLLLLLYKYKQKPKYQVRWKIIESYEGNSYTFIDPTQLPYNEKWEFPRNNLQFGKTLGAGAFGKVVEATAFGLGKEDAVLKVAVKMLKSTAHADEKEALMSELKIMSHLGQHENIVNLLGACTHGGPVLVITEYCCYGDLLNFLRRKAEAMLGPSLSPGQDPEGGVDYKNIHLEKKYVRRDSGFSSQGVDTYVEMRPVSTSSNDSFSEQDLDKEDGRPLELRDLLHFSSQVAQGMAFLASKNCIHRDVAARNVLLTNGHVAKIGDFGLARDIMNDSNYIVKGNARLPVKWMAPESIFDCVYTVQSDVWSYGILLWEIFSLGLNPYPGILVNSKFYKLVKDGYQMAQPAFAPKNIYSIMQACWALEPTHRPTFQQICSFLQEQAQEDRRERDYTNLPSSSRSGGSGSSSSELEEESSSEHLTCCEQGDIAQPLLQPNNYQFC
Chain of mutant CSF-1R L301S Y969F (P07333 20-972 L301S/Y969F limits assumed): as the sequence (P07333 20-972 limits assumed) above, with L282S, Y950F counted along it
T3 sequence (P07333 20-517, change not shown): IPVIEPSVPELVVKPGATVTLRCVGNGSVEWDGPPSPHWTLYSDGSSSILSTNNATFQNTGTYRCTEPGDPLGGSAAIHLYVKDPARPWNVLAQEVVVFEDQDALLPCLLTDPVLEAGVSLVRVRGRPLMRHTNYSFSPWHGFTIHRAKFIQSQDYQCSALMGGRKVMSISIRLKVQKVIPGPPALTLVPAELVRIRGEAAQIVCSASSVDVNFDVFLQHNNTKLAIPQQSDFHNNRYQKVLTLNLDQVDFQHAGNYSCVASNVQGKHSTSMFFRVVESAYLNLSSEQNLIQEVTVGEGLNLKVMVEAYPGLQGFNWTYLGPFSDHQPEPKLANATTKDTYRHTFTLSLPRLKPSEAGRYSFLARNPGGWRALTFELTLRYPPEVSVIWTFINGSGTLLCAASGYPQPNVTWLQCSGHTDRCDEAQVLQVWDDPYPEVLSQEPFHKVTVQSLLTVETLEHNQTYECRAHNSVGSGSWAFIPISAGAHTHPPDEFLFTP
Chain of CSF-1R ECD (R&D-Systems 329-MR or in-house subcloned pCMV-presS-HisAvitag-hCSF-1R-ECD) (human) (P07333 20-517 limits assumed): as the sequence (P07333 20-517, change not shown) above
T2 sequence (P07333 20-517 limits assumed): as the sequence (P07333 20-517, change not shown) above
Chain of huCSF-1R-huFc chimera (soluble extracellular domain) (human) (P07333 20-517, change not shown): as above

Anti CSF-1R SC-02, clone 2-4A5 (Santa Cruz Biotechnology, US) (antibody)
% inhibition 10 ug/ml antibody concentration, BeWo tumor cells in 3D culture [1]: 40%
% survival, NIH3T Cells expressing wtCSF-1R, 10 ug/ml antibody [1]: 62%
IC50 CSF-1R Phosphorylation [1]: 0.412 µg/mL
IC50 [nM], inhibition of the survival of monocytes [1]: 2.4 nM
IC50 [2]: 0.0309 µg/mL
percentage (%) of expected binding response [3]: -2%
Kd [4]: 2.73 nM
koff [4]: 0.00139 s⁻¹
kon [4]: 509000 M⁻¹ s⁻¹
t1/2 [4]: 8.31 min
percentage (%) of expected binding response [5]: 24%
% survival, NIH3T Cells expressing Mutant CSF-1R, 10 ug/ml antibody [6]: 66%
percentage (%) of expected binding response [7]: 42%

B1: <CSF-1R>10A4.1G11 (antibody, V domains shown)
VH: EVQLQQFGTELVKPGASVKISCKASGYTFTDYNMDWVKQSHGKSLEWIGDINPNYDSTTYNQKFKGKATLTVDKSSSTAYMELRSLTSEDTAVYYCARWRFFAMDYWGQGTSVTVSS
VL: DIQMTQSSSSFSVSLGDRVTITCKASEDIYNRLAWYQQKPGNAPRLLISGASSLETGVPSRFSGSGSGKDYTLSITSLQTEDVATYYCQQYWSIPWTFGGGTKLEIKR
notes: Mouse monoclonal antibody from a hybridoma
IC50 [nM], inhibition of the survival of monocytes [8]: 0.4 nM
Kd [9]: 1.77 nM
koff [9]: 0.0013 s⁻¹
kon [9]: 740000 M⁻¹ s⁻¹
t1/2 [9]: 8.89 min
IC50 [10]: 0.0634 µg/mL
IC50 CSF-1R Phosphorylation [11]: 0.0154 µg/mL
% survival, NIH3T Cells expressing wtCSF-1R, 10 ug/ml antibody [12]: 3%
% survival, NIH3T Cells expressing Mutant CSF-1R, 10 ug/ml antibody [6]: 144%

B2: <CSF-1R>7H5.2G10 (antibody, V domains shown)
VH: EVQLQQSGPELVKPGASMKISCKASGYSFTDYTVNWVKQSHGENLDWIGLIIPYNGGTSYNHNFRGKATLTVDKSSSTAYMELLSLTSEDSAVYYCTRGGGDFTTGYTMDYWGHGTSVTVSS
VL: DIQMTQSSSYLSVSLGGTVTINCKASDHIHDWLAWYQQQPGNAPRLLISGATSLETGVPSRFSGGGSGKDYSLIITSLQTEDFATYYCQQYWSIPWTFGGGTKLEIKR
notes: Mouse monoclonal antibody from a hybridoma (NMRI mice); also called deposited antibody DSM ACC2922
IC50 [nM], inhibition of the survival of monocytes [8]: 1 nM
Kd [9]: 0.54 nM
koff [9]: 0.00038 s⁻¹
kon [9]: 700000 M⁻¹ s⁻¹
t1/2 [9]: 30.4 min
IC50 [10]: 0.0269 µg/mL
IC50 CSF-1R Phosphorylation [11]: 0.049 µg/mL
% survival, NIH3T Cells expressing wtCSF-1R, 10 ug/ml antibody [12]: 2%
% survival, NIH3T Cells expressing Mutant CSF-1R, 10 ug/ml antibody [6]: 112%

B3: <CSF-1R>6G4.1C8 (antibody, V domains shown)
VH: B2 VH with E89D, H114Q
VL: B2 VL with D31N, F83V
notes: as for B1
Kd [9]: 0.52 nM
koff [9]: 0.00029 s⁻¹
kon [9]: 570000 M⁻¹ s⁻¹
t1/2 [9]: 39.4 min
IC50 [10]: 0.0212 µg/mL
IC50 CSF-1R Phosphorylation [11]: 0.0826 µg/mL
% survival, NIH3T Cells expressing wtCSF-1R, 10 ug/ml antibody [12]: 3%
% survival, NIH3T Cells expressing Mutant CSF-1R, 10 ug/ml antibody [6]: 91%
